# From PMC8079451, “Phosphopeptide interactions of the Nbs1 N-terminal FHA-BRCT1/2 domains” (Scientific Reports, 2021)
# Square brackets hold non-standard residues; d marks the D form. Primed or numbered codes have the meaning given here. Ends that are not written are not given here. Peptide text beside a SMILES is read from it. FITC′ = fluorescein isothiocyanate label; pT = C[C@@H](OP(=O)(O)O)[C@H](N)C(=O)O; pS = N[C@@H](COP(=O)(O)O)C(=O)O
# T1: hsNbs1(384)(R28S,K29S,R43A) triple mutant (human, UniProt O60934 1-384, R28S | K29S | R43A)
# T1 construct: source: E. coli BL21(DE3) pLacI, purified as the wild type
# T1 sequence (looked up): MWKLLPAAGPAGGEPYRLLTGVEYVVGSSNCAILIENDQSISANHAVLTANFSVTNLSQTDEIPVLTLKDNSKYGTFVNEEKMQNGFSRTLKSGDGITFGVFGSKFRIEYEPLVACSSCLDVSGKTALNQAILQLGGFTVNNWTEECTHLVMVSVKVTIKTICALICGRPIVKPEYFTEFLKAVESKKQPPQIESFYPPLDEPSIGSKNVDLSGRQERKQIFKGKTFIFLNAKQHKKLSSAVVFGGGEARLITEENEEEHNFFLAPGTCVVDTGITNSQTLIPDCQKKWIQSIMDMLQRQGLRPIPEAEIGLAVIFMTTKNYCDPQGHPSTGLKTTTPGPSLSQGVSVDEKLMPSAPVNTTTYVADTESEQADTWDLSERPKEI
# T2: hsNbs1(384) (Homo sapiens, UniProt O60934)
# T2 construct: The N-terminal 384 residues of homo sapiens Nbs1 (hsNbs1(384) containing the FHA-BRCT1-BRCT2 domains); made in house; host or cells: E. coli BL21(DE3) pLacI
# T2 sequence (O60934 1-384): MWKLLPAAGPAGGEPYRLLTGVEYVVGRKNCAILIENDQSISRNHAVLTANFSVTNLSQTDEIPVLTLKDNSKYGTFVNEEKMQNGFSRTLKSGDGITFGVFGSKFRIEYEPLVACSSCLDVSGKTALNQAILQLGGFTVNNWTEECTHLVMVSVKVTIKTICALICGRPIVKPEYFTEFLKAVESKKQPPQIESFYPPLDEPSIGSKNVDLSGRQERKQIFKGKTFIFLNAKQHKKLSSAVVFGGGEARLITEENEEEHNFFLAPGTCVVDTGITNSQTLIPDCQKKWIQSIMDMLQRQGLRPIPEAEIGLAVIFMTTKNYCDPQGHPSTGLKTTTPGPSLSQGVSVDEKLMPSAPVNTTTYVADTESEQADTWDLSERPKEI
# T3: hsNbs1(384), the N-terminal 384 residues of homo sapiens Nbs1 containing the FHA-BRCT1-BRCT2 domains (human, UniProt O60934 1-384)
# T3 construct: gene optimised for E. coli, cloned into pET30a (NdeI/HindIII); also called wt; source: E. coli BL21(DE3) pLacI, purified (Ni-NTA, HiTrap Q, Superdex 75)
# T3 sequence (looked up): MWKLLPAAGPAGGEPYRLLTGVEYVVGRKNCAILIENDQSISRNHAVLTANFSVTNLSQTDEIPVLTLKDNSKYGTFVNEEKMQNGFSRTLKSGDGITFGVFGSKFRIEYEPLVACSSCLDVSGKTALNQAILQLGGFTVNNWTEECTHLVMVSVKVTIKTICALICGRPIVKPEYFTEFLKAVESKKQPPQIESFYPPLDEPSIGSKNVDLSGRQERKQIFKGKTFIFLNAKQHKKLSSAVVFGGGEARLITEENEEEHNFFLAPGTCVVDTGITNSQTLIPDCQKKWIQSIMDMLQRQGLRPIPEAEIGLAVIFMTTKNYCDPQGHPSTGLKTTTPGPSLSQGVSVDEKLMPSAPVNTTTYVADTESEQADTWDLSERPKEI
# B1: MDC1 pS329,pT331 phosphopeptide FITC-GG-FID(pS)D(pT)DAEEE (peptide)
# peptide: {FITC′}-GGFID[pS]D[pT]DAEEE
# notes: Gly-Gly between the N-terminal FITC and the peptide; MDC1, human, stretch around pS329 and pT331; also called hsMDC1; source: synthetic peptide (GenScript)
# B2: hsMDC1 phosphopeptide FITC-GG-PFGFID(pS)D(pT)DVEEER (peptide)
# peptide: {FITC′}-GGPFGFID[pS]D[pT]DVEEER
# notes: Gly-Gly between the N-terminal FITC and the peptide; MDC1, human, one of the SDT repeats; also called second test peptide containing the pSer-Asp-pThr motif; source: synthetic peptide (GenScript)
# B3: Chk2 pT68 phosphopeptide SLETVS(pT)QELYSIPED with C-terminal K/FITC (peptide)
# peptide: SLETVS[pT]QELYSIPEDK(FITC′)
# notes: Checkpoint 2 kinase (Chk2), stretch around pT68; added C-terminal lysine that carries FITC (footnote b: C-terminal K/FITC); source: synthetic peptide (GenScript)
# B4: CtIP pT859 phosphopeptide WEVGFPS(pT)QTCMERGYI with C-terminal K/FITC (peptide)
# peptide: WEVGFPS[pT]QTCMERGYIK(FITC′)
# notes: CtIP, human, stretch around pT859; added C-terminal lysine that carries FITC (footnote b: C-terminal K/FITC); also called CtIP-859; source: synthetic peptide (GenScript)
# B5: CtIP pS347 phosphopeptide GLDLNTSL(pS)PSLLQPGKKK with C-terminal K/FITC (peptide)
# peptide: GLDLNTSL[pS]PSLLQPGKKKK(FITC′)
# notes: CtIP, human, stretch around pS347; added C-terminal lysine that carries FITC (footnote b: C-terminal K/FITC); also called CtIP pSer347 peptide; pSer347 peptide; source: synthetic peptide (GenScript)
# B6: XRCC1 pS485,pT488 phosphopeptide FITC-GG-DNGAED(pS)GD(pT)EDELR (peptide)
# peptide: {FITC′}-GGDNGAED[pS]GD[pT]EDELR
# notes: Gly-Gly between the N-terminal FITC and the peptide; XRCC1, human, stretch around pS485 and pT488; also called XRCC1 pSer485-Gly-Asp-pThr488 peptide with an N-terminal fluorescein tag; source: synthetic peptide (GenScript)
# B7: XRCC1 pS518,pT519 phosphopeptide FITC-GG-DPYAG(pSpT)DENTDSEEHQE (peptide)
# peptide: {FITC′}-GGDPYAG[pS][pT]DENTDSEEHQE
# notes: Gly-Gly between the N-terminal FITC and the peptide; XRCC1, human, stretch around pS518 and pT519; also called XRCC1 pSer518-pThr519 phosphopeptide; source: synthetic peptide (GenScript)
# B8: XRCC1 pS485,pT488 phosphopeptide EGVQSEGQDNGAED(pS)GD(pT)EDELR with C-terminal K/FITC (peptide)
# peptide: EGVQSEGQDNGAED[pS]GD[pT]EDELRK(FITC′)
# notes: XRCC1, human, stretch around pS485 and pT488; added C-terminal lysine that carries FITC (footnote b: C-terminal K/FITC); also called XRCC1 pSer485-Gly-Asp-pThr488 peptide containing a C-terminal fluorescein; source: synthetic peptide (GenScript)
# B9: CtIP pT312,pT315 phosphopeptide TEDSLRFSDS(pT)SK(pT)PPQEELP with C-terminal K/FITC (peptide)
# peptide: TEDSLRFSDS[pT]SK[pT]PPQEELPK(FITC′)
# notes: CtIP, human, stretch around pT312 and pT315; added C-terminal lysine that carries FITC (footnote b: C-terminal K/FITC); also called test peptide containing the pThr312-Ser-Lys-pThr315; source: synthetic peptide (GenScript)
# B10: FANCJ pT1133 phosphopeptide EDESIYF(pT)PELYDPEIE with C-terminal K/FITC (peptide)
# peptide: EDESIYF[pT]PELYDPEIEK(FITC′)
# notes: FANCJ helicase, stretch around pT1133; added C-terminal lysine that carries FITC (footnote b: C-terminal K/FITC); A shorter FANCJ phosphopeptide (SIYFpTPELYD) stands in the cited TopBP1 BRCT7/8 structure PDB 3AL3; also called FANCJ pThr1133 phosphopeptide; FANCJ phosphopeptide; source: synthetic peptide (GenScript)
# B11: CtIP pT847 phosphopeptide FITC-GG-RYIPPN(pT)PENFWEVG (peptide)
# peptide: {FITC′}-GGRYIPPN[pT]PENFWEVG
# notes: Gly-Gly between the N-terminal FITC and the peptide; CtIP, human, stretch around pT847; source: synthetic peptide (GenScript)
# Molecular target: T1, hsNbs1(384)(R28S,K29S,R43A) triple …
# Assay: fluorescence polarisation; 100 nM FITC-labeled phosphopeptide with increasing hsNbs1(384); room temperature, 15 min incubation; 25 mM HEPES pH 7.4, 150 mM NaCl, 1 mM EDTA, 2 mM DTT, 0.05% Tween20, 0.1% BSA; one-site model
# Conditions: both partners purified
row,Molecule,Kd
1,B1,1.47 µM
2,B2,1.6 µM

# Molecular target: T2, hsNbs1(384)
# Assay: Fluorescence polarization (FP) binding of FITC-labeled phosphopeptides to hsNbs1(384)
# Conditions: wild-type hsNbs1(384); FP assay
# Protocol: Figure 4 Binding of FITC-labeled peptides to hsNbs1(384). Solid lines with filled data markers show normalized fluorescence polarization of the following peptides (see Table 1 for peptide sequences) as a function of the concentration of hsNbs1(384) corresponding to: CtIP-pS347 (gray); CtIP-pT847 (blue); FANCJ (green); CtIP-859 (orange); ChK2-pT68 (yellow). FP studies were performed at room temperature in 25 mM HEPES (pH 7.4), 150 mM NaCl, 1 mM EDTA, 2 mM DTT, 0.05% Tween20, 0.1% BSA after a 15-min incubation period. The data points were fit to a single-site non-cooperative model.
# Phosphopeptide-protein interactions were measured by a fluorescence polarization (FP) assay. 100 nM FITC-labeled phosphopeptides were incubated at room temperature for 15 min with the indicated concentrations of hsNbs1(384) in FP buffer composed of 25 mM HEPES, 150 mM NaCl, 1 mM EDTA, 2 mM DTT, 0.05% Tween20, 0.1% BSA, pH 7.4 prior to the measurement of fluorescence polarization (POLARstar Omega microplate reader, BMG Labtech). All samples were prepared in a 96-well black flat-bottomed polypropylene microplate and each well contained 50 µL. Each well was recorded by 100 flashes with an excitation wavelength of 485 nm, and detection of emission at 520 nm. Data for the interaction of a phosphopeptide with hsNbs1(384) were analyzed using non-linear fitting with a one-site total binding model. All Kd values were determined in triplicate, and reported as mean ± standard deviation. All phosphopeptides used were synthesized by GenScript.
row,Molecule,"binding to Nbs1(384), in words"
1,"DPYAG(pSpT)DENTDSEEHQE [XRCC1 pS518,pT519, FITC-labeled XRCC1 phosphopeptide with consecutively phosphorylated pSer518-pThr519]",no interaction
2,"TRVS[pS]PVFGAT [CtIP pS327, FITC-labeled CtIP pSer327 peptide that targets the tandem BRCA1 BRCT domains]",does not bind

# Same assay, conditions: wild-type hsNbs1(384); FP; Kd 35 µM vs 4.5 µM
row,Molecule,"difference in Kd between N-terminal and C-terminal fluorescein-tagged XRCC1 pS485,pT488 peptides"
1,CC(C)C[C@H](NC(=O)[C@H](CCC(=O)O)NC(=O)[C@H](CC(=O)O)NC(=O)[C@H](CCC(=O)O)NC(=O)[C@@H](NC(=O)[C@H](CC(=O)O)NC(=O)CNC(=O)[C@H](COP(=O)(O)O)NC(=O)[C@H](CC(=O)O)NC(=O)[C@H](CCC(=O)O)NC(=O)[C@H](C)NC(=O)CNC(=O)[C@H](CC(N)=O)NC(=O)[C@H](CC(=O)O)NC(=O)[C@H](CCC(N)=O)NC(=O)CNC(=O)[C@H](CCC(=O)O)NC(=O)[C@H](CO)NC(=O)[C@H](CCC(N)=O)NC(=O)[C@@H](NC(=O)CNC(=O)[C@@H](N)CCC(=O)O)C(C)C)[C@@H](C)OP(=O)(O)O)C(=O)N[C@@H](CCCNC(=N)N)C(=O)O (H-EGVQSEGQDNGAED[pS]GD[pT]EDELR-OH),eightfold

# Molecular target: T3, hsNbs1(384), the N-terminal 384 …
# Assay: fluorescence polarisation; 100 nM FITC-labeled phosphopeptide with increasing hsNbs1(384); room temperature, 15 min incubation; 25 mM HEPES pH 7.4, 150 mM NaCl, 1 mM EDTA, 2 mM DTT, 0.05% Tween20, 0.1% BSA; one-site model
# Conditions: both partners purified
row,Molecule,Kd
1,B3,98.7 µM
2,B4,90.5 µM
3,B1,0.65 µM
4,B5,2.64 µM
5,B6,34.8 µM
6,B7,> 65 µM
7,B8,4.5 µM
8,B9,90 µM
9,B10,26.9 µM
10,B11,22 µM
